Measurements reported in PMC5093408.
One block for each substance: values may come before it.

Key:
[1] = target: HUSpm Asn92Lys mutant (Spiroplasma melliferum KC3); experiment: SEC; size-exclusion chromatography of the purified point mutants; conditions not given
[2] = target: HUSpm Lys35Thr mutant (Spiroplasma melliferum KC3); experiment: as above
[3] = target: HUSpm Phe14Ala mutant (Spiroplasma melliferum KC3); experiment: as above
[4] = target: HUSpm Phe29Ala mutant (Spiroplasma melliferum KC3); experiment: as above
[5] = target: HUSpm Val17Thr mutant (Spiroplasma melliferum KC3); experiment: as above
[6] = target: histone-like HU protein from Spiroplasma melliferum KC3 (Spiroplasma melliferum KC3); experiment: crystal structure; hanging-drop vapour diffusion at 4 °C; protein 14 mg/ml in 20 mM Tris HCl pH 8.0, 200 mM NaCl, 5% glycerol; reservoir 0.1 M Tris HCl pH 8.0, 35% v/v PEG 400, 5% glycerol; one monomer per asymmetric unit, dimer by a crystallographic twofold axis; 1.4 Å

Substance: HUSpm Asn92Lys mutant (natural protein)
stoichiometry N [1]: 2

Substance: HUSpm Lys35Thr mutant (natural protein)
stoichiometry N [2]: 2

Substance: HUSpm Phe14Ala mutant (natural protein)
stoichiometry N [3]: 2

Substance: HUSpm Phe29Ala mutant (natural protein)
stoichiometry N [4]: 2

Substance: HUSpm Val17Thr mutant (natural protein)
stoichiometry N [5]: 2

stoichiometry N [6]: 2
Substance: histone-like HU protein from Spiroplasma melliferum KC3 (natural protein)
